Measurements taken from the supplement of paper PMC9732359.
± gives the uncertainty stated by the source.

Experiment: protein stability index of a GFP-peptide fusion (yeast GPS) (PSI 1-4); higher = more stable; sorted into four equal gates, so the index is relative within each strain
Procedure, shortened: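 Tiled 17-residue yeast protein peptides were fused downstream of GFP in a plasmid that also expresses Cherry, and the pooled library was carried in yeast. Mid-log cultures in leucine-free medium were sorted into four equal gates by GFP/Cherry fluorescence ratio, and plasmids from each gate were PCR-amplified and Illumina-sequenced, with reads assigned to strains by barcodes. The protein stability index for each peptide was each gate's read frequency times its gate number, summed.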

Sequence	protein stability index (doa10∆)	protein stability index (pdr5∆)	protein stability index (san1∆)	protein stability index (ubr1∆)
LPAPPVCIRPSVMMQDS [RPO31]	1.61 ± 0.081	2.08 ± 0.1	1.93 ± 0.11	2.04 ± 0.095
PVDHPHGGGNHQHIGKA [RPL2A]	3.11 ± 0.11	3.31 ± 0.085	3.09 ± 0.051	3.22 ± 0.071
PVKALNECIASTSNALK [SNF12]	2.85 ± 0.056	2.8 ± 0.066	2.75 ± 0.05	2.81 ± 0.051
SAISVTNVEDPLAKKQT [SIR2]	–	–	–	3.2 ± 0.21
PTFVEFILIPLYKIFSY [SNU114]	1.98 ± 0.045	1.73 ± 0.054	1.62 ± 0.073	1.63 ± 0.044
ERLMISSDAFEVDVCDK [RET1]	2.31 ± 0.11	2.63 ± 0.05	2.04 ± 0.061	2.21 ± 0.061
KVISNPLLARKQFVVDV [RPS24A]	1.95 ± 0.088	1.94 ± 0.048	2.14 ± 0.076	2.07 ± 0.05
KASVTIVFDNTDKSNSP [SMC2]	2.99 ± 0.045	3.02 ± 0.044	2.9 ± 0.042	3.156 ± 0.028
AGNIKCRNDAVNWLAYT [BRR2]	3.13 ± 0.05	3.49 ± 0.039	3.16 ± 0.034	3.24 ± 0.035
MKPSDNISTNTNIHEPQ [SSN2]	3.19 ± 0.042	3.08 ± 0.051	3.1 ± 0.042	3.06 ± 0.052
IIDRGRNVLSASLDGTI [RPN14]	3.1 ± 0.093	2.52 ± 0.065	2.97 ± 0.055	2.77 ± 0.044
LMETLRTLRRKGDINPE [RPB2]	3.08 ± 0.1	3.37 ± 0.079	2.85 ± 0.088	3.16 ± 0.069
EKASGFEDSMQFKKLTH [PRP8]	2.81 ± 0.085	3.12 ± 0.083	2.99 ± 0.087	3.01 ± 0.084
LGYPPISLVDDIINAVN [MTW1]	2.46 ± 0.076	2.14 ± 0.065	2.44 ± 0.063	1.94 ± 0.069
LAEEVVDNIVNKYQYSL [SRP68]	3.09 ± 0.069	2.98 ± 0.069	2.82 ± 0.056	2.92 ± 0.046
HPAHVMWSVARAGQRGY [RPL3]	1.68 ± 0.2	1.83 ± 0.22	1.5 ± 0.13	1.24 ± 0.12
NGDNLYGNDEEVLFYED [RPN4]	3.07 ± 0.1	3.22 ± 0.12	3.1 ± 0.096	2.95 ± 0.074
FTKKPVTPNDKIPEREE [SIR4]	3.05 ± 0.13	2.95 ± 0.087	3.27 ± 0.13	3.1 ± 0.063
ASKGRTKIDMPIKNRKN [BRN1]	3.21 ± 0.11	3.13 ± 0.088	2.91 ± 0.12	3.17 ± 0.1
PEYYSTARVMGGLKNGV [DIS3]	3.15 ± 0.093	3.24 ± 0.1	3.23 ± 0.052	3.01 ± 0.082
SPIGFTNSPQISVTRQV [SMC2]	2.92 ± 0.052	3.09 ± 0.047	2.95 ± 0.043	2.79 ± 0.034
ERAAQKLRLDQLVIQQG [ISW2]	2.49 ± 0.11	2.52 ± 0.094	2.74 ± 0.082	2.42 ± 0.069
DRAIRKTCQWYSEHLKP [DIS3]	3.17 ± 0.089	3.1 ± 0.096	3.01 ± 0.07	3.3 ± 0.12
RRIIQNAQQTFHIDHTK [RPO21]	2.81 ± 0.061	2.89 ± 0.061	3 ± 0.062	2.89 ± 0.066
RVVTVDGKLIDISGTMS [SMC4]	–	3.11 ± 0.19	3.35 ± 0.06	3.52 ± 0.12
SQRPGARILARSERKRT [ITC1]	3.14 ± 0.18	2.79 ± 0.17	3.07 ± 0.21	2.98 ± 0.2
NPVTLNEDSKAFHTAVL [NUT1]	2.81 ± 0.057	2.96 ± 0.076	2.82 ± 0.075	2.41 ± 0.059

Sequence	protein stability index (doa10∆)	protein stability index (pdr5∆)	protein stability index (san1∆)	protein stability index (ubr1∆)
LMRQALAIKDSKKRFAA [RPO21]	1.83 ± 0.062	2.12 ± 0.055	1.98 ± 0.072	1.53 ± 0.049
GWKPLRYLDNLKQEIDR [SNU114]	–	–	–	3.15 ± 0.13
AVAGLTADAEILINTAR [PRE9]	2.98 ± 0.11	3.02 ± 0.088	3.07 ± 0.1	3.09 ± 0.078
KKECALLISYGVSIENE [SRB4]	1.75 ± 0.085	1.9 ± 0.16	1.96 ± 0.24	2.03 ± 0.16
LRLTDVTNSLSNEEKEK [GAL11]	3.14 ± 0.12	3.17 ± 0.12	2.52 ± 0.15	3.3 ± 0.12
DAVEGVSECIILGQTMS [RPO31]	1.7 ± 0.21	1.46 ± 0.077	1.45 ± 0.12	1.56 ± 0.13
VKESNNYYSNKSNSTGN [REC8]	2.44 ± 0.067	2.71 ± 0.085	2.56 ± 0.07	2.97 ± 0.046
IPISSETTIDDLPISST [SMC1]	2.68 ± 0.047	2.72 ± 0.061	2.68 ± 0.047	2.99 ± 0.041
SLQDSIIKQENFNSVND [SSN2]	2.4 ± 0.11	1.83 ± 0.073	2.48 ± 0.078	2.73 ± 0.098
NNWFSLPGDMLAVCDEL [SIN4]	2.33 ± 0.073	2.21 ± 0.079	1.73 ± 0.13	1.85 ± 0.067
ILARNDEEMAVLTRMDE [SNF2]	3.04 ± 0.071	2.87 ± 0.079	2.37 ± 0.084	3.15 ± 0.047
IGLIALSATGTRSAKKM [YJR042W/NUP85]	–	–	3 ± 0.15	–
YRRLFAKRLIHGTSTSA [CDC53]	1.44 ± 0.11	1.36 ± 0.11	–	–
LAVCDELGNMTMLITGQ [SIN4]	2.21 ± 0.06	2.55 ± 0.046	2.23 ± 0.061	2.02 ± 0.045
VLKEKDVPAYNVTSFMP [SRB8]	3.11 ± 0.064	3.01 ± 0.051	3.03 ± 0.051	3 ± 0.037
IGIVEIAHENEQKWLIY [SRB8]	1.69 ± 0.067	1.83 ± 0.051	1.58 ± 0.086	1.54 ± 0.034
ASVEIVFHDPDHSMILP [SMC3]	2.26 ± 0.11	2.54 ± 0.12	2.98 ± 0.15	2.65 ± 0.079
IFALVFSSNERYFFWLQ [RPN13]	1.25 ± 0.046	1.61 ± 0.07	1.65 ± 0.08	1.87 ± 0.046
AKSNEDKQDGTAKPAFS [YJL041W/NSP1]	3.03 ± 0.23	3.44 ± 0.13	3.29 ± 0.17	2.96 ± 0.29
PQQAQQQPNPLHGLTPT [GAL11]	3 ± 0.068	2.95 ± 0.042	2.83 ± 0.051	3.05 ± 0.035
RAYMRPLGVILTFVSVD [SCL1]	1.74 ± 0.049	1.81 ± 0.044	2.05 ± 0.083	2.16 ± 0.04
KSLEVVNADTVGKTVKQ [NSL1]	3.13 ± 0.059	2.99 ± 0.049	2.77 ± 0.051	3.08 ± 0.047
TITNSSSSSDIIVPDLI [YML103C/NUP188]	2.87 ± 0.081	3.07 ± 0.052	2.83 ± 0.061	3.05 ± 0.056
LKIYYKEEFSSDESIER [RRI2]	–	2.43 ± 0.15	2 ± 0.23	2.9 ± 0.11
SSNISPEQVYSLLLTNV [ARP7]	2.27 ± 0.035	2.48 ± 0.036	2.43 ± 0.04	2.46 ± 0.033
WGGFPLDISVFLLEKAG [TAF14]	3.2 ± 0.11	3.38 ± 0.067	3.26 ± 0.06	3.15 ± 0.075
DDIYDISLLKNRRKQSF [RPN4]	2.91 ± 0.11	3.08 ± 0.12	3.13 ± 0.12	3.1 ± 0.14
